From article PMC2603305 (Biochemistry, 2008) come the findings set out here.

Positions count from the first letter of the chain named. Where two headings read alike, the source gives them in different places.

Series [1] concerns the target T1, Kvβ2 (β-subunit of the voltage-gated potassium channel) (Rattus norvegicus, UniProt P62483).
T1 sequence (P62483 39-367): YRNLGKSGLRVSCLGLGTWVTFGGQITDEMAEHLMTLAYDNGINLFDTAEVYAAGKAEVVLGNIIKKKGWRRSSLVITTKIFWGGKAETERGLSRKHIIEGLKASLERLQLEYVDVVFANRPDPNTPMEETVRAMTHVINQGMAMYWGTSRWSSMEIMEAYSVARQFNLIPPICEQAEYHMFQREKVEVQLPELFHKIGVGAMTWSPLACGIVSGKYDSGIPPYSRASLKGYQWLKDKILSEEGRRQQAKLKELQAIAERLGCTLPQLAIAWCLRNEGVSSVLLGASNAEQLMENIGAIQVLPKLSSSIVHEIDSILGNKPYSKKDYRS
Briefly: NADPH oxidation, specific activity at […]. Type of series: biochemical.

Series [2] concerns the target T1, Kvβ2 (β-subunit of the voltage-gated potassium channel). In words: NADPH oxidation, specific activity at […]. Type of series: biochemical. The source holds these as a separate data set.
Series [3] concerns O=C1C(=O)c2ccccc2-c2ccccc21. Briefly: steady-state NADPH oxidation kinetics. It is filed as biochemical, Rattus norvegicus.
Series [4] deals with T1, Kvβ2 (β-subunit of the voltage-gated potassium channel). Briefly: intrinsic fluorescence titration. Type of series: binding.
The next series concerns the target T2, Kvβ2:Y90F (Rattus norvegicus, UniProt P62483, Y90F).
T2 sequence (P62483 39-367 Y90F): T1 sequence (P62483 39-367) with Y52F
In words: intrinsic fluorescence titration. It is filed as binding.

Substrate in the series “purified protein”: O=Cc1ccc([N+](=O)[O-])cc1
Briefly: purified protein. Particulars: NADPH active site, Tyr-90 acid-base catalyst; binds after NADPH.

Substrate in series [5]: CC(=O)C=O
Briefly: steady-state NADPH oxidation kinetics. It is filed as biochemical, Rattus norvegicus. Particulars: NADPH.

Substrate in series [6]: CC(=O)c1ccc([N+](=O)[O-])cc1
Briefly: steady-state NADPH oxidation kinetics. Type of series: biochemical, Rattus norvegicus. As to conditions: NADPH active site, Tyr-90 acid-base catalyst.

With `CCCCC/C=C\CC(=O)/C=C/C=C\C/C=C\CCCC(=O)O` [12-oxoETE], the “Specific activity” value in series [1] turned out to be 0.044 ± 0.007 min⁻¹.
`CCCCC[C@H](O)/C=C/[C@H]1C(=O)C=C[C@@H]1C/C=C\CCCC(=O)O` [PGJ2]: in series [2], the “Specific activity” value is 0.086 ± 0.019 min⁻¹.
In the case of “Kvβ2 (β-subunit of the voltage-gated potassium channel) (Rattus norvegicus)”, the Km in series [3] stood at 240 ± 140 µM.
Turning to `NC(=O)C1=CN([C@@H]2O[C@H](COP(=O)(O)OP(=O)(O)OC[C@H]3O[C@@H](n4cnc5c(N)ncnc54)[C@H](OP(=O)(O)O)[C@@H]3O)[C@@H](O)[C@H]2O)C=CC1` [NADPH], the Kd in series [4] was determined as 200 ± 5 nM; at Kvβ2:Y90F, 130 ± 11 nM.

B1: Kvβ2 (β-subunit of the voltage-gated potassium channel) (Rattus norvegicus) (protein)
chain: T1 sequence (P62483 39-367)
For the molecule B1, the Km in “purified protein” stood at 283 ± 31 µM; in series [5], 12000 ± 1000 µM; in series [6], 209 ± 49 µM. Further, the results for the kcat (in the series “purified protein”; in series [6]) were 0.00267 s⁻¹ and 0.00153 ± 0.0001 s⁻¹, respectively. Besides, the values for the kcat/Km (in the series “purified protein”; in series [6]) were 9.83 M⁻¹ s⁻¹ and 7.67 ± 1.5 M⁻¹ s⁻¹, respectively.

As usually defined, the Km is the substrate concentration at which the rate is half of its maximum. As usually defined, the Kd is the concentration at which binding is half-saturated. As a reminder, the kcat is the number of substrate molecules converted per active site and unit of time at saturation. The term kcat/Km denotes the second-order rate constant that governs catalysis at low substrate concentration.
